Laboratory results from the RNAGym collection of RNA variant scans (doi:10.1021/acssynbio.7b00057).

B1: Pistol ribozyme (parent)
chain: GGGUCGUUGUUCCAUAAUCGCGUGGAUAUGGCACGCAAGUUUCUACCGGGCACCGUAAAUGUCCGACUGGAGCCGUUCGGGCGGCUAUAAACAGACCUCAGGCCCGAAGCGUGGCGGCACCUGCCGCCGGUGGUAAAAAAGAUCGGAAGAGCACACGUCU

Variants of: B1
Assay: aptazyme ON/OFF ratio, guanine; higher = stronger switching; co-transcriptional cleavage with and without guanine

Variant	aptazyme ON/OFF ratio
GGGUCGCCCAGAGAUAAUCGCGUGGAUAUGGCACGCAAGUUUCUACCGGGCACCGUAAAUGUCCGACUGGAGCCGUUCGGGCGGCUAUAAACAGACCUCAGGCCCGAAGCGUGGCGGCACCUGCCGCCGGUGGUAAAAAAGAUCGGAAGAGCACACGUCU [U7C U8C G9C U10A U11G C12A C13G]	1.12
GGGUCGCCCAGAUAUAAUCGCGUGGAUAUGGCACGCAAGUUUCUACCGGGCACCGUAAAUGUCCGACUGGAGCCGUUCGGGCGGCUAUAAACAGACCUCAGGCCCGAAGCGUGGCGGCACCUGCCGCCGGUGGUAAAAAAGAUCGGAAGAGCACACGUCU [U7C U8C G9C U10A U11G C12A C13U]	1.14
GGGUCGCCCAGAAAUAAUCGCGUGGAUAUGGCACGCAAGUUUCUACCGGGCACCGUAAAUGUCCGACUGGAGCCGUUCGGGCGGCUAUAAACAGACCUCAGGCCCGAAGCGUGGCGGCACCUGCCGCCGGUGGUAAAAAAGAUCGGAAGAGCACACGUCU [U7C U8C G9C U10A U11G C12A C13A]	1.07
GGGUCGCCCACUCAUAAUCGCGUGGAUAUGGCACGCAAGUUUCUACCGGGCACCGUAAAUGUCCGACUGGAGCCGUUCGGGCGGCUAUAAACAGACCUCAGGCCCGAAGCGUGGCGGCACCUGCCGCCGGUGGUAAAAAAGAUCGGAAGAGCACACGUCU [U7C U8C G9C U10A U11C C12U]	1.17
GGGUCGCCCCUUCAUAAUCGCGUGGAUAUGGCACGCAAGUUUCUACCGGGCACCGUAAAUGUCCGACUGGAGCCGUUCGGGCGGCUAUAAACAGACCUCAGGCCCGAAGCGUGGCGGCACCUGCCGCCGGUGGUAAAAAAGAUCGGAAGAGCACACGUCU [U7C U8C G9C U10C C12U]	1.94
GGGUCGCCCCUACAUAAUCGCGUGGAUAUGGCACGCAAGUUUCUACCGGGCACCGUAAAUGUCCGACUGGAGCCGUUCGGGCGGCUAUAAACAGACCUCAGGCCCGAAGCGUGGCGGCACCUGCCGCCGGUGGUAAAAAAGAUCGGAAGAGCACACGUCU [U7C U8C G9C U10C C12A]	1.08
GGGUCGCCCCUGCAUAAUCGCGUGGAUAUGGCACGCAAGUUUCUACCGGGCACCGUAAAUGUCCGACUGGAGCCGUUCGGGCGGCUAUAAACAGACCUCAGGCCCGAAGCGUGGCGGCACCUGCCGCCGGUGGUAAAAAAGAUCGGAAGAGCACACGUCU [U7C U8C G9C U10C C12G]	1.14
GGGUCGCCCACUAAUAAUCGCGUGGAUAUGGCACGCAAGUUUCUACCGGGCACCGUAAAUGUCCGACUGGAGCCGUUCGGGCGGCUAUAAACAGACCUCAGGCCCGAAGCGUGGCGGCACCUGCCGCCGGUGGUAAAAAAGAUCGGAAGAGCACACGUCU [U7C U8C G9C U10A U11C C12U C13A]	1.13
GGGUCGCCCACUUAUAAUCGCGUGGAUAUGGCACGCAAGUUUCUACCGGGCACCGUAAAUGUCCGACUGGAGCCGUUCGGGCGGCUAUAAACAGACCUCAGGCCCGAAGCGUGGCGGCACCUGCCGCCGGUGGUAAAAAAGAUCGGAAGAGCACACGUCU [U7C U8C G9C U10A U11C C12U C13U]	1.17
GGGUCGCCCACUGAUAAUCGCGUGGAUAUGGCACGCAAGUUUCUACCGGGCACCGUAAAUGUCCGACUGGAGCCGUUCGGGCGGCUAUAAACAGACCUCAGGCCCGAAGCGUGGCGGCACCUGCCGCCGGUGGUAAAAAAGAUCGGAAGAGCACACGUCU [U7C U8C G9C U10A U11C C12U C13G]	1.13
GGGUCGCCCCUAUAUAAUCGCGUGGAUAUGGCACGCAAGUUUCUACCGGGCACCGUAAAUGUCCGACUGGAGCCGUUCGGGCGGCUAUAAACAGACCUCAGGCCCGAAGCGUGGCGGCACCUGCCGCCGGUGGUAAAAAAGAUCGGAAGAGCACACGUCU [U7C U8C G9C U10C C12A C13U]	1.1
GGGUCGCCCCUAGAUAAUCGCGUGGAUAUGGCACGCAAGUUUCUACCGGGCACCGUAAAUGUCCGACUGGAGCCGUUCGGGCGGCUAUAAACAGACCUCAGGCCCGAAGCGUGGCGGCACCUGCCGCCGGUGGUAAAAAAGAUCGGAAGAGCACACGUCU [U7C U8C G9C U10C C12A C13G]	1.07
GGGUCGCCCCUAAAUAAUCGCGUGGAUAUGGCACGCAAGUUUCUACCGGGCACCGUAAAUGUCCGACUGGAGCCGUUCGGGCGGCUAUAAACAGACCUCAGGCCCGAAGCGUGGCGGCACCUGCCGCCGGUGGUAAAAAAGAUCGGAAGAGCACACGUCU [U7C U8C G9C U10C C12A C13A]	1.06
GGGUCGCCCACGGAUAAUCGCGUGGAUAUGGCACGCAAGUUUCUACCGGGCACCGUAAAUGUCCGACUGGAGCCGUUCGGGCGGCUAUAAACAGACCUCAGGCCCGAAGCGUGGCGGCACCUGCCGCCGGUGGUAAAAAAGAUCGGAAGAGCACACGUCU [U7C U8C G9C U10A U11C C12G C13G]	1.15
GGGUCGCCCACGUAUAAUCGCGUGGAUAUGGCACGCAAGUUUCUACCGGGCACCGUAAAUGUCCGACUGGAGCCGUUCGGGCGGCUAUAAACAGACCUCAGGCCCGAAGCGUGGCGGCACCUGCCGCCGGUGGUAAAAAAGAUCGGAAGAGCACACGUCU [U7C U8C G9C U10A U11C C12G C13U]	1.2
GGGUCGCCCACCGAUAAUCGCGUGGAUAUGGCACGCAAGUUUCUACCGGGCACCGUAAAUGUCCGACUGGAGCCGUUCGGGCGGCUAUAAACAGACCUCAGGCCCGAAGCGUGGCGGCACCUGCCGCCGGUGGUAAAAAAGAUCGGAAGAGCACACGUCU [U7C U8C G9C U10A U11C C13G]	1.1
GGGUCGCCCACCAAUAAUCGCGUGGAUAUGGCACGCAAGUUUCUACCGGGCACCGUAAAUGUCCGACUGGAGCCGUUCGGGCGGCUAUAAACAGACCUCAGGCCCGAAGCGUGGCGGCACCUGCCGCCGGUGGUAAAAAAGAUCGGAAGAGCACACGUCU [U7C U8C G9C U10A U11C C13A]	1.08
GGGUCGCCCACCUAUAAUCGCGUGGAUAUGGCACGCAAGUUUCUACCGGGCACCGUAAAUGUCCGACUGGAGCCGUUCGGGCGGCUAUAAACAGACCUCAGGCCCGAAGCGUGGCGGCACCUGCCGCCGGUGGUAAAAAAGAUCGGAAGAGCACACGUCU [U7C U8C G9C U10A U11C C13U]	1.1
